Consider six molecules from patent publication US20190060480A1 (NATIONAL CANCER CENTER JAPAN, published 2019).

Where a chain is given by its changes, count along the chain named.

Assay [1] addresses T1, human transmembrane protein 180 (TMEM-180) (human, UniProt Q14CX5 1-517).
T1 construct: Membrane protein; also called TMET-180
T1 sequence: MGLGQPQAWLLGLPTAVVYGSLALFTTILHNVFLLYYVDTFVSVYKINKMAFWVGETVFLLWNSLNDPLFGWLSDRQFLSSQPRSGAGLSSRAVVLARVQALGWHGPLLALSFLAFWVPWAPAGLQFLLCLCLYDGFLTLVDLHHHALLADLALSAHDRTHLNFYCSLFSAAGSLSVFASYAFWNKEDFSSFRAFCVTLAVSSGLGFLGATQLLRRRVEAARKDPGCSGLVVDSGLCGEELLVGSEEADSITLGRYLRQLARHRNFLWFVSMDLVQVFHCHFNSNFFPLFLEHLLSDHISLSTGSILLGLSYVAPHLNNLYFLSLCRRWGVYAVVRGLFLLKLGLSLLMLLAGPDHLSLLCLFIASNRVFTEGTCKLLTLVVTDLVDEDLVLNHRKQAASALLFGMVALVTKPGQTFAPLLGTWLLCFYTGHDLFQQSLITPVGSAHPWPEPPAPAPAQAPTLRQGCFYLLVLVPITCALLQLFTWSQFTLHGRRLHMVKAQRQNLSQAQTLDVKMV
The experiment in a line: flow cytometry on cancer cell lines, hybridoma supernatant. As to the method: The plate was centrifuged for 3 minutes at 440×g and 4° C. followed by removing the supernatant, adding antibody-producing hybridoma culture supernatant or antibody solution to the cell pellet at 50 μL/well and suspending therein. After allowing to react for 45 minutes on ice, the plate was washed three times with a mixture of 0.1% BSA, 2 mM EDTA and PBS at 200 μL/well. The supernatant was removed and secondary antibody was added to the cell pellet at 50 μL/well followed by suspending the cells therein. AlexaFluor 647 goat anti-rat IgG (H-L) (Life Technologies Corporation) was used for the secondary antibody after diluting 400-fold with a mixture of 0.1% BSA, 2 mM EDTA and PBS. After allowing to react for 45 minutes on ice, the plate was washed three times with a mixture of 0.1% BSA, 2 mM EDTA and PBS at 200 μL/well. After removing the supernatant, 50 ng/mL of propidium iodide, 0.1% BSA, 2 mM EDTA and PBS were added to the cell pellet at 250 μL/well followed by suspending therein. The cells stained in this manner were measured using a flow cytometer such as the Guava easyCyte 8HT (Merck Millipore Corporation) followed by analysis of the resulting data using FlowJO (Tomy Digital Biology Co., Ltd.). FACS analysis was carried out using colon cancer, brain tumor and hematologic cancer.
(§1) Flow cytometry was carried out in accordance with the procedure described in the above-mentioned section 3. […] The supernatant of a culture of hybridoma producing rat IgM antibody clone 365 was used as a negative control after similarly diluting to 1 μg/mL. […] A mixture of RPMI and 10% FBS was used to dilute each of the antibodies. Furthermore, antibody concentration in the hybridoma culture supernatant was measured by rat IgM-specific ELISA (Bethyl Laboratories).
On the technique in general: Flow cytometry measures light scatter and fluorescence of single cells or particles in a stream.

Assay [2] concerns the target T1, human transmembrane protein 180 …. Nature of the assay: flow cytometry, DLD-1 parent line against TMEM-180 knockout line (considerable left shift in the knockout). As for the experimental part:
After removing the supernatant, 50 ng/mL of propidium iodide, 0.1% BSA, 2 mM EDTA and PBS were added to the cell pellet at 250 μL/well followed by suspending therein. The cells stained in this manner were measured using a flow cytometer such as the Guava easyCyte 8HT (Merck Millipore Corporation) followed by analysis of the resulting data using FlowJO (Tomy Digital Biology Co., Ltd.). FACS analysis was carried out using colon cancer, brain tumor and hematologic cancer.
as §1

Assay [3] shares this target. The experiment in a line: FACS on cancer-derived cell lines (Table 23).

B1: rat IgM antibody clone 98 (antibody, V domains shown)
VH: QVQLKESGPGLVQPSQTLSLTCTVSGFSLTRYNVHWVRQPTGKGLEWMGVIWTGGSTDYNSALKSRLSISRDTSKSQVFLKMNSLQTEDIATYYCARDLGYWGQGVMVTVSS
VL: DIVMTQTPLSLSVAIGQSASISCKSSQSLKYRDGKTYLNWVFQSPGQSPKRLIYQVSKLDSGVPDRFSGTGSETDFTLKISRVEAEDLGVYYCCQGSYSPHTFGAGTKLELK
notes: Rat IgM from a hybridoma; also called 98 antibody; IgM 98
Regarding B1, in assay [1], the binding result is reported as “binds”.

B2: rat-human chimeric antibody clone 98 (antibody, IgG1, V domains shown)
VH: B1 VH
VL: B1 VL
notes: Clone 98 variable regions on human constant regions (IgG1), expressed in 293T cells; also called human chimeric IgG1 antibody; human chimeric IgG antibody
Consider B2, for which, in assay [2], the binding result is “binds”.

B3: rat IgM antibody clone 101 (antibody, V domains shown)
VH: QVQLKETGPGLVQPTQTLSITCTVSGFSLTSYYMQWVRQTPGKGLEWMGFIRSGGSTEYNSEFKSRLSISRDTSKNQVFLKMNSLKTEDTGVYYCARAFYGGYYFDYWGQGVMVTVSS
VL: DIVMTQSPTSISISVGERVTMNCKASQNVGSNVDWYQQKTGQSPKLLIYKASNRYTGVPDRFTGSGSGTDFTFTISNMQAEDLAVYYCMQSNTKYTFGAGTKLELK
notes: Rat IgM
In the case of B3, the binding result in assay [1] is reported as “binds”.

B4: anti-TMEM-180 antibody clone 212 (antibody, V domains shown)
VH: EVQLVESGGGLVQPGNSLKLSCAASGFTFSDYAMAWVRQSPKKGLEWVATIIYDGSSTYYRDSVKGRFTISRDNAKSTLYLQMDSLRSEDTATYYCATHWYWYFDFWGPGTMVTVSS
VL: DIQMTQSPASLSASLGETVSIECLASEGISNDLAWYQQKSGKSPQLLIYAASRLQDGVPSRFSGSGSGTRYSLKISGMQPEDEADYFCQQSYKYPLTFGSGTKLEIK
notes: Rat IgM
In the case of B4, the binding result in assay [1] is recorded as “binds”.

B5: anti-TMEM-180 antibody clone 1052 (antibody, V domains shown)
VH: QVQLKESGPGLMQPSETLSLTCTVSGFSLTSNGVGWVRQPLGKGLVWMGTIWTGGGTNYNSGVQSRLSISRDTSKSQVFLKMNSLQPEDTGTYYCAREYMGFDYWGQGVMVTVSS
VL: NTVMTQSPTSMFTSVGDRVTMSCKASQNVGINVGWYQQKTGQSPKRLIYWASNRDTGVPDRFTGSGSGTDFTLTISNMQAEDPAIYYCLQHNSYPRTFGGGTKLELK
notes: Rat IgM; also called 1052 antibody
As to B5, the binding result in assay [3] is recorded as “binds”.

B6: anti-TMEM-180 antibody clone 1105 (antibody, V domains shown)
VH: B5 VH with T53S, G62A, S70T, Y99E, M100K, D103A, V109T, M110L
VL: B5 VL with T2I, F12S, T97A, K107R
notes: Rat IgM; also called 1105 antibody
For B6, in assay [3], the binding result was “binds”.
